The source of these data is patent US20100184614, “MICROARRAY SYSTEMS AND METHODS FOR IDENTIFYING DNA-BINDING PROTEINS” (published 2010).

The target in the data set is Estrogen receptor alpha (UniProt P03372 P03372:1-595). Put plainly: EMSA; column gel, 30 min. The note with it: tags: Invitrogen; label: IRDye 700 or Cy3; partially double-stranded; 3' single-stranded tag. The procedure: A similar result is obtained using recombinant estrogen receptor alpha (ER-alpha) protein. ER-alpha is obtained from INVITROGEN® and mixed with YZ11 (its specific probe) labeled with IR Dye 700. The mixture was then loaded on the column gel and run for 30 minutes (FIG. 10).
(In general: A gel shift assay detects complexes by their altered migration in electrophoresis.)

Chain of Estrogen receptor alpha (P03372 whole entry, one chain of several): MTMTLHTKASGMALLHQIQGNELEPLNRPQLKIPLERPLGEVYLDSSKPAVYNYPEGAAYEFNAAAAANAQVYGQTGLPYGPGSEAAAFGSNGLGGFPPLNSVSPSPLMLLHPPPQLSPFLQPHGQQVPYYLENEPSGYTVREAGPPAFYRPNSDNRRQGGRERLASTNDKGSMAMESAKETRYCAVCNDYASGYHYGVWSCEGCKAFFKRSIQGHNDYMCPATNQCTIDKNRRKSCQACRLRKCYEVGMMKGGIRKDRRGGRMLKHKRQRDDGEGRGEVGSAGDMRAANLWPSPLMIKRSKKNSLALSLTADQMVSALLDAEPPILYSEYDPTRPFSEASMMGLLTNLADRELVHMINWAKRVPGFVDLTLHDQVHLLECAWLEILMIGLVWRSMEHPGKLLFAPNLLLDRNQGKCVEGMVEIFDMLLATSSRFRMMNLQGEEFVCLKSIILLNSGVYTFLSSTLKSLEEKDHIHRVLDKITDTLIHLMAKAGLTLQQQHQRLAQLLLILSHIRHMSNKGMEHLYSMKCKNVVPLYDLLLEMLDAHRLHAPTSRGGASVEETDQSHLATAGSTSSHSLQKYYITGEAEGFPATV

B1: YZ-11 (Table 17) (mixed)
DNA 1: CCTGCCAGGTCGCGCTGCCCTCCTTCTACCATGCCTTAGGAGAATTGTTTTGTTT
DNA 2: GGTAGAAGGAGGGCAGCGCGACCTGGCAGG
On to B1, for which the binding result is “binds”.
